From US8992886B2, “Cyclic peptide analogues for non-invasive imaging of pancreatic beta-cells” (Board of Regents, the University of Texas System, priority 2009, dated 2015)
Ends that are not written are not given here.

How the values were obtained:
GLP-1R [1] = target: T1, GLP-1R (Homo sapiens, UniProt P43220); assay: cAMP formation by radioimmunoassay in transfected HEK293 cells; format: cell-based; set-up: expressed in transfected cells; host or cells: HEK293; details: compared with GLP-1
Protocol: Twelve cyclic GLP-1 analogues containing lactam bridges in various regions (from the N- to C-terminal regions) were designed and synthesized. The cyclic peptides were prepared by following standard solid-phase peptide synthesis protocol with N-Fmoc/^tBu protecting group strategy. The side chains of a lysine and a glutamic acid that would form a lactam bridge were protected with allyl groups which were selectively removed by using Pd^0 catalyst and an allyl scavenger like N,N-dimethylbarbituric acid (29). The released free amine and carboxylic acid were coupled on resin using HBTU or BOP to form a cyclic peptide. […] In addition, cAMP formation by the peptides was determined by radioimmunoassay using the transfected HEK293 cells to examine agonistic activity. […] (SEQ ID No: 5) and […] R (SEQ ID No: 6).
Target sequence in this assay (P43220 24-463): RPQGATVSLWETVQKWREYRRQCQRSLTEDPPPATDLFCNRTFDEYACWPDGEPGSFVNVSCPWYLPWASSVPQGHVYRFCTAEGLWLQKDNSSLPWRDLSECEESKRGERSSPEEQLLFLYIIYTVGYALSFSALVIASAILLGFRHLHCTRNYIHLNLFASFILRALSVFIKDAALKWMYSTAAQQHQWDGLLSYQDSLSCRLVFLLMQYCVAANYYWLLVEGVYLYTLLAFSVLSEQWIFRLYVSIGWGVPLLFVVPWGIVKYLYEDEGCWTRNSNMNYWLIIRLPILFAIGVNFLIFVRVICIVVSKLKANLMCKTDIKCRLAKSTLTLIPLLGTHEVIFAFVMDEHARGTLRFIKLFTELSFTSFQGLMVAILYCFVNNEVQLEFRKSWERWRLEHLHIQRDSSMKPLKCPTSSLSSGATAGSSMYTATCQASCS

GLP-1R [2] = target: T1, GLP-1R; details: DPP-IV degradation fragment; cited from earlier work
Target sequence in this assay (P43220 24-463, species assumed): as the sequence (P43220 24-463) above

[3] = Tissue distribution of ^125I-labeled peptide in normal Sprague-Dawley rats; format: in vivo
Excerpt: (§1) This presumably resulted from the degradation of the peptide by DPP-IV since it has Ala at position 8. In order to overcome this problem, we have replaced the L-Ala with a D-Ala. Furthermore, due to high stomach uptake likely resulting from in vivo de-iodination of the ^125I-labeled peptide, a conventional metal chelator. […] The purified conjugates were labeled with either ^64Cu or ^111In in high radiochemical yields.

[4] = test system: freshly isolated rat islets; assay: Displacement binding assay of ^125I-labeled peptide on isolated islets; details: ^125I-labeled (at Tyr^19)
Excerpt: as §1

Row | Substance | receptor activation (cAMP formation) (GLP-1R [1]) | receptor affinity and biological activity (GLP-1R [2]) | accumulation in kidneys and stomach [3] | pancreas uptake [3] | specific binding to isolated islets [4]
1 | HAEGTFTSDVSSYLEGQAAKEFIEWLVKG R (chain 1 HAEGTFTSDVSSYLEGQAAKEFIEWLVKGR; chain 2 HAEGTFTSDVSSYLEGQAAKEFIEWLVKGR; lactam (positions not given here); ends not checked; also: lactam bridge, positions not given here) [SEQ ID No: 6, cyclic GLP-1 analogue with a lactam bridge] | comparable or improved | – | – | – | –
2 | GLP-1(9-36) amide | – | lost receptor affinity and biological activity nearly completely | – | – | –
3 | HAEGTFTSDESSYKEGQAAKEFIAWLVKGR (lactam (positions not given here); ends not checked; also: lactam bridge, positions not given here) [SEQ ID No: 5, cyclic GLP-1 analogue with a lactam bridge] | comparable or improved | – | high accumulation in kidneys and stomach | no significant pancreas uptake | appreciable specific binding
